# Reference: US20250276075A1, “METHODS OF TREATING AXL-EXPRESSING CANCERS WITH ANTI-AXL ANTIBODIES, ANTIBODY FRAGMENTS AND THEIR IMMUNOCONJUGATES” (BIOATLA, INC., priority 2020, published 2025)
# “Also recorded” adds a separate entry of the source.
# T1: mouse Axl (Mus musculus, UniProt Q00993)
# T1 sequence (Q00993 19-888): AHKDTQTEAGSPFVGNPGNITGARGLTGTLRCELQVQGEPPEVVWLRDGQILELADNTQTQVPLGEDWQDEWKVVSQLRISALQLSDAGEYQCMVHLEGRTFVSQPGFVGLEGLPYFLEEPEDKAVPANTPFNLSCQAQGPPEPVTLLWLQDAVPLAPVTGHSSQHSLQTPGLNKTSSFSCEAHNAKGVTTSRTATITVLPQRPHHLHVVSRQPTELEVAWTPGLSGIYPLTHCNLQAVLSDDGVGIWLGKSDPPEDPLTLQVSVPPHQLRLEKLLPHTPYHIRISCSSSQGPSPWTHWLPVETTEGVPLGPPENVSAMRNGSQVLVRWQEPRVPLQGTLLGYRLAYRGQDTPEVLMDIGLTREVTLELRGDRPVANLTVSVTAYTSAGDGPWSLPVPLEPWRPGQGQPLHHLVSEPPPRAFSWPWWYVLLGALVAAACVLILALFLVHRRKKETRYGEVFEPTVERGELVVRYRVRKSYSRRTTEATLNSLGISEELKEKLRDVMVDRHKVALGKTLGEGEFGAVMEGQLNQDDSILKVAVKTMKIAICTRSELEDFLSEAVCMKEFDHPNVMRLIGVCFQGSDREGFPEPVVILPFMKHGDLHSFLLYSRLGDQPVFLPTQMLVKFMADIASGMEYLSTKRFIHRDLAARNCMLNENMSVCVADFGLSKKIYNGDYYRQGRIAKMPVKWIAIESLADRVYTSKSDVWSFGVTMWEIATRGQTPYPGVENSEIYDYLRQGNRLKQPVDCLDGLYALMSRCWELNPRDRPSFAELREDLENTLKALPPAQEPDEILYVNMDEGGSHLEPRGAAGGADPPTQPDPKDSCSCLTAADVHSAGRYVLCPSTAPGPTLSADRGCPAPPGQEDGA
# Assays:
# mouse Axl = target: T1, mouse Axl; assay: BA3011 binding to mouse Axl
# [1] = BA3011 repeat dose intravenous toxicology study in monkey; format: in vivo, cynomolgus monkey
# Protocol: The nonclinical intravenous (IV) toxicity of BA3011 was evaluated in the monkey in an initial dose-range finding study followed by a definitive Good Laboratory Practice repeat dose toxicology study. […] Many of the toxicities observed with BA3011 are similar to other ADCs conjugated to MMAE.
# (§1) Based on the results at the 5 and 10 mg/kg/dose, the no-observed-adverse-effect-level (NOAEL) of BA3011 was considered to be 1 mg/kg/dose for both males and females. […] The highest non-severely toxic dose (HNSTD) was 5 mg/kg/dose, with C0 on Day 22 at 111 μg/mL and AUC0-inf at 2370 μg·h/mL.
# [2] = BA3011 plasma exposure in monkey toxicology study; format: in vivo, cynomolgus monkey
# Protocol: as §1
# [3] = Phase 1 clinical study of BA3011: pharmacokinetics; format: in vivo, human
# Text: • PK of BA3011: plasma concentrations of ADC, total antibody and MMAE, and PK parameters, including Cmax and AUC. • Efficacy (expansion cohorts only): ORR, disease control rate (DCR), time to response (TTR), duration of response (DOR), best objective response (OR), progression-free survival (PFS), overall survival (OS), and percent change from baseline in tumor size. • Immunogenicity of BA3011: the number and percentage of patients who develop detectable anti-drug antibodies (ADAs).
# Sample collection timepoints for BA3011 PK, PD, and immunogenicity testing are presented in Table 18 (Phase 1) and Table 19 (Phase 2).
# (§2) In Phase 1 (NCT03425279), BA3011 was administered once (Q3W) or twice (2Q3W) every 3 weeks via intravenous (IV) infusion.
# advanced sarcoma = assay: Phase 1 clinical study of BA3011: antitumor activity (RECIST v1.1, change in sum of target lesions); format: in vivo, human
# Text: The primary efficacy endpoint in Phase 2 is objective response (OR) per RECIST v1.1 using blinded independent central review (BICR). Objective response rate (ORR) is defined as the proportion of subjects with a best overall response of confirmed CR or confirmed PR that occur prior to the initiation of subsequent anticancer treatment. ORR will be estimated with a 95% CI using the exact probability method for each sarcoma subtype and overall in each of the 2 treatment groups (BA3011 alone and in combination with nivolumab). Other efficacy endpoints are duration of response (DOR), progression-free survival (PFS), best overall response (OR), disease control rate (DCR), time to response (TTR), progression-free rate (PFR) at 12 weeks, overall survival (OS), and percent change from baseline in target lesion sum of diameters. All efficacy endpoints except PFS and OS will be summarized primarily based on the full analysis set (FAS). PFS and OS will be summarized based on the As-Treated Population. Time-to-event data will be summarized using Kaplan-Meier estimates. Response rates and their confidence intervals will be estimated using the exact probability method. Graphical analyses will include spider and waterfall plots for the change and best change from baseline in tumor size, respectively.
# Study BA3011-001 was an ongoing, multi-center, open-label, Phase 1/2 first-in-human trial of BA3011.
# as §2
molecule,measurement,setting,value
"Mecbotamab vedotin (conjugate, chains of the INN, looked up, MC-vc-PAB-MMAE conjugate) VH: EVQLVQSGAEVKKPGATVKISCKVSGYSFWGATMNWIRQPPGKGLEWIGLIKPSNGGTSYNQKFKGRVTISADKSISTAYLQWSSLKASDTAMYYCAHGHYESYEAMDYWGQGTLVTVSS VL: DIQMTQSPSSLSASVGDRVTITCKASQDVVSAVAWYQQKPGQAPRLLIYWQDTRHTGVPSRFSGSGSGTEFTLTISSLQPDDFATYYCQEHFSPPLTFGQGTKVEIK",binding to mouse Axl,mouse Axl,not mouse or rat Axl; also recorded: lacked binding to the rodent enzyme
same,pathological changes in lymphoid organs,[1]; 10 mg/kg/dose in males and 5 mg/kg/dose in females,adverse pathological changes in lymphoid organs
same,mortality,"[1]; 10 mg/kg/dose, Days 1 and 22, IV slow bolus",early deaths in females
same,hematological changes,[1]; 5 and 10 mg/kg/dose in both sexes,adverse hematological changes
same,"changes in body weight, electrocardiogram (ECG), ophthalmology, or urinalysis",[1]; any of the dose levels tested,No test article-related changes
same,highest non-severely toxic dose (HNSTD),"[1]; cynomolgus monkey, in vivo",5 mg/kg/dose
same,area under the concentration versus time curve (AUC)0-inf,"[2]; 1 mg/kg/dose, Day 22",376 µg·h/mL
same,group mean maximum plasma exposure (C0),"[2]; 1 mg/kg/dose, Day 22",20.0 µg/mL
same,AUC0-inf,[2]; 5 mg/kg/dose (HNSTD),2370 µg·h/mL
same,C0,"[2]; 5 mg/kg/dose (HNSTD), Day 22",111 µg/mL
same,PK profile,[3],approximately dose proportional
same,half-life,[3],approximately 4 days
same,antitumor activity in sarcoma patients,advanced sarcoma; Phase 1,correlated with higher levels of AXL tumor membrane expression; also recorded: evidence of antitumor activity was observed
same,confirmed partial responses,advanced sarcoma; of 7 treatment refractory sarcoma patients with baseline TmPS≥70 dosed at 1.8 mg/kg (Q3w or 2Q3w),4
same,duration of response to therapy,"advanced sarcoma; sarcoma patients, FIG. 24",Prolonged response to therapy
